“And” between values parts separate entries of the source, which are not always exact repeats. Equal values may be shown once.
Conditions: Bos taurus; pH 7.4; Thermal; CD; Tris-HCl 20 mM; CaCl2 1 mM; reversible: yes(>95%); whole UniProt chain shown

B1: Alpha-lactalbumin wild type, P00711 (protein)
chain: MMSFVSLLLVGILFHATQAEQLTKCEVFRELKDLKGYGGVSLPEWVCTTFHTSGYDTQAIVQNNDSTEYGLFQINNKIWCKDDQNPHSSNICNISCDKFLDDDLTDDIMCVKKILDKVGINYWLAHKALCSEKLDQWLCEKL
With B1 as the protein, how does the “unfolding enthalpy (van 't Hoff)” value read?
Its value is 64.5 kcal/mol and 73.8 kcal/mol and 73.4 kcal/mol.

— FireProtDB (doi:10.1093/protein/12.7.581)
